Test results: publication PMC10875708 (2024)

B1: Stearoyl-CoA desaturase (SCD1) [human (endogenous in HCT116)] / Sulfotransferase family 2B member 1 (SULT2B1) [human (endogenous in HCT116)] (parent complex)
chain 1: MPAHLLQDDISSSYTTTTTITAPPSRVLQNGGDKLETMPLYLEDDIRPDIKDDIYDPTYKDKEGPSPKVEYVWRNIILMSLLHLGALYGITLIPTCKFYTWLWGVFYYFVSALGITAGAHRLWSHRSYKARLPLRLFLIIANTMAFQNDVYEWARDHRAHHKFSETHADPHNSRRGFFFSHVGWLLVRKHPAVKEKGSTLDLSDLEAEKLVMFQRRYYKPGLLMMCFILPTLVPWYFWGETFQNSVFVATFLRYAVVLNATWLVNSAAHLFGYRPYDKNISPRENILVSLGAVGEGFHNYHHSFPYDYSASEYRWHINFTTFFIDCMAALGLAYDRKKVSKAAILARIKRTGDGNYKSG
chain 2: MDGPAEPQIPGLWDTYEDDISEISQKLPGEYFRYKGVPFPVGLYSLESISLAENTQDVRDDDIFIITYPKSGTTWMIEIICLILKEGDPSWIRSVPIWERAPWCETIVGAFSLPDQYSPRLMSSHLPIQIFTKAFFSSKAKVIYMGRNPRDVVVSLYHYSKIAGQLKDPGTPDQFLRDFLKGEVQFGSWFDHIKGWLRMKGKDNFLFITYEELQQDLQGSVERICGFLGRPLGKEALGSVVAHSTFSAMKANTMSNYTLLPPSLLDHRRGAFLRKGVCGDWKNHFTVAQSEAFDRAYRKQMRGMPTFPWDEDPEEDGSPDPEPSPEPEPKPSLEPNTSLEREPRPNSSPSPSPGQASETPHPRPS

Variants of: B1
Assay: co-IP (IP: SCD1, IB: SULT2B1), band quantification; HCT116 cells; parent: 1; read off a plot

ratio to parent | Variant
~2.4 | chain 1 MPAHLLQDDISSSYTTTTTITAPPSRVLQNGGDKLETMPLYLEDDIRPDIKDDIYDPTYKDKEGPSPKVEYVWRNIILMSLLHLGALYGITLIPTCKFYTWLWGVFYYFVSALGITAGAHRLWSHRSYKARLPLRLFLIIANTMAFQNDVYEWARDHRAHHKFSETHADPHNSRRGFAFSHVGWLLVRKHPAVKEKGSTLDLSDLEAEKLVMFQRRYYKPGLLMMCFILPTLVPWYFWGETFQNSVFVATFLRYAVVLNATWLVNSAAHLFGYRPYDKNISPRENILVSLGAVGEGFHNYHHSFPYDYSASEYRWHINFTTFFIDCMAALGLAYDRKKVSKAAILARIKRTGDGNYKSG [chain 1 F178A]
~2.6 | chain 1 MPAHLLQDDISSSYTTTTTITAPPSRVLQNGGDKLETMPLYLEDDIRPDIKDDIYDPTYKDKEGPSPKVEYVWRNIILMSLLHLGALYGITLIPTCKFYTWLWGVFYYFVSALGITAGAHRLWSHRSYKARLPLRLFLIIANTMAFQNDVYEWARDHRAHHKFSETHADPHNSRRGFGFSHVGWLLVRKHPAVKEKGSTLDLSDLEAEKLVMFQRRYYKPGLLMMCFILPTLVPWYFWGETFQNSVFVATFLRYAVVLNATWLVNSAAHLFGYRPYDKNISPRENILVSLGAVGEGFHNYHHSFPYDYSASEYRWHINFTTFFIDCMAALGLAYDRKKVSKAAILARIKRTGDGNYKSG [chain 1 F178G]

More lines, now with the values behind:

Variant | ratio to parent
chain 1 MPAHLLQDDISSSYTTTTTITAPPSRVLQNGGDKLETMPLYLEDDIRPDIKDDIYDPTYKDKEGPSPKVEYVWRNIILMSLLMLGALYGITLIPTCKFYTWLWGVFYYFVSALGITAGAHRLWSHRSYKARLPLRLFLIIANTMAFQNDVYEWARDHRAHHKFSETHADPHNSRRGFFFSHVGWLLVRKHPAVKEKGSTLDLSDLEAEKLVMFQRRYYKPGLLMMCFILPTLVPWYFWGETFQNSVFVATFLRYAVVLNATWLVNSAAHLFGYRPYDKNISPRENILVSLGAVGEGFHNYHHSFPYDYSASEYRWHINFTTFFIDCMAALGLAYDRKKVSKAAILARIKRTGDGNYKSG [chain 1 H83M] | ~1.2
chain 1 MPAHLLQDDISSSYTTTTTITAPPSRVLQNGGDKLETMPLYLEDDIRPDIKDDIYDPTYKDKEGPSPKVEYVWRNIILMELLHLGALYGITLIPTCKFYTWLWGVFYYFVSALGITAGAHRLWSHRSYKARLPLRLFLIIANTMAFQNDVYEWARDHRAHHKFSETHADPHNSRRGFFFSHVGWLLVRKHPAVKEKGSTLDLSDLEAEKLVMFQRRYYKPGLLMMCFILPTLVPWYFWGETFQNSVFVATFLRYAVVLNATWLVNSAAHLFGYRPYDKNISPRENILVSLGAVGEGFHNYHHSFPYDYSASEYRWHINFTTFFIDCMAALGLAYDRKKVSKAAILARIKRTGDGNYKSG [chain 1 S80E] | ~0.5
chain 1 MPAHLLQDDISSSYTTTTTITAPPSRVLQNGGDKLETMPLYLEDDIRPDIKDDIYDPTYKDKEGPSPKVEYVWRNIILMRLLHLGALYGITLIPTCKFYTWLWGVFYYFVSALGITAGAHRLWSHRSYKARLPLRLFLIIANTMAFQNDVYEWARDHRAHHKFSETHADPHNSRRGFFFSHVGWLLVRKHPAVKEKGSTLDLSDLEAEKLVMFQRRYYKPGLLMMCFILPTLVPWYFWGETFQNSVFVATFLRYAVVLNATWLVNSAAHLFGYRPYDKNISPRENILVSLGAVGEGFHNYHHSFPYDYSASEYRWHINFTTFFIDCMAALGLAYDRKKVSKAAILARIKRTGDGNYKSG [chain 1 S80R] | ~0.35
chain 1 MPAHLLQDDISSSYTTTTTITAPPSRVLQNGGDKLETMPLYLEDDIRPDIKDDIYDPTYKDKEGPSPKVEYVWRNIILMFLLHLGALYGITLIPTCKFYTWLWGVFYYFVSALGITAGAHRLWSHRSYKARLPLRLFLIIANTMAFQNDVYEWARDHRAHHKFSETHADPHNSRRGFFFSHVGWLLVRKHPAVKEKGSTLDLSDLEAEKLVMFQRRYYKPGLLMMCFILPTLVPWYFWGETFQNSVFVATFLRYAVVLNATWLVNSAAHLFGYRPYDKNISPRENILVSLGAVGEGFHNYHHSFPYDYSASEYRWHINFTTFFIDCMAALGLAYDRKKVSKAAILARIKRTGDGNYKSG [chain 1 S80F] | ~0.4
